Results on one substance are retold here after patent publication US20150174076A1, “MUCOADHESIVE DEVICES FOR DELIVERY OF ACTIVE AGENTS” (Entrega, Inc., priority 2012, published 2015).

This series deals with Caco-2 monolayers. In words: Transport of FITC-insulin across Caco-2 monolayer. It counts as in vitro ADME, human. The method, then:
Caco-2 cell line HTB-37 (American Type Culture Collection, Rockville, Md.), derived from human colon cells, was used for all experiments. Cells were maintained at 37° C. in DMEM supplemented with 25 IU/ml of penicillin, 25 mg/L of streptomycin, 250 μg/L of amphotericin B and 100 ml/L of fetal bovine serum. Monolayers were grown on BD Biocoat™ collagen filter supports (Discovery Labware, Bedford. Mass.). […] At the end of the growth period, the integrity of the cell monolayer was confirmed by transepithelial electrical resistance (TEER) measurements (Millicell-ERS voltohmmeter, Millipore. Billerica, Mass.). Only monolayers with TEER values over 300 Ω cm^2 were used for further experimentation. A solution of FITC-insulin in DMEM was placed on Caco-2 monolayers at various concentrations and samples were collected from the basolateral side and analyzed for fluorescence. To determine insulin transport from wafers, FITC-insulin-containing wafers were placed on Caco-2 monolayers. Samples were taken from the basolateral side and analyzed for insulin concentration.
For orientation: Passage across Caco-2 layers is used to estimate intestinal permeability.

With “insulin free in solution: solution of FITC-insulin in DMEM placed on Caco-2 monolayers”, the “transport of insulin across Caco-2 monolayers” value is listed as “dose-dependent”.
